According to patent US7902348B2, “Janus family kinases and identification of immune modulators” (The United States of America as represented by the …, priority 1995, dated 2011):

T1: γc-JAK-3 interaction (Homo sapiens, UniProt P52333)
T1 construct: endogenous in cells; host or cells: YT cells (alternatively COS-7 cells expressing γc and JAK-3)
T1 sequence (P52333 1-1124): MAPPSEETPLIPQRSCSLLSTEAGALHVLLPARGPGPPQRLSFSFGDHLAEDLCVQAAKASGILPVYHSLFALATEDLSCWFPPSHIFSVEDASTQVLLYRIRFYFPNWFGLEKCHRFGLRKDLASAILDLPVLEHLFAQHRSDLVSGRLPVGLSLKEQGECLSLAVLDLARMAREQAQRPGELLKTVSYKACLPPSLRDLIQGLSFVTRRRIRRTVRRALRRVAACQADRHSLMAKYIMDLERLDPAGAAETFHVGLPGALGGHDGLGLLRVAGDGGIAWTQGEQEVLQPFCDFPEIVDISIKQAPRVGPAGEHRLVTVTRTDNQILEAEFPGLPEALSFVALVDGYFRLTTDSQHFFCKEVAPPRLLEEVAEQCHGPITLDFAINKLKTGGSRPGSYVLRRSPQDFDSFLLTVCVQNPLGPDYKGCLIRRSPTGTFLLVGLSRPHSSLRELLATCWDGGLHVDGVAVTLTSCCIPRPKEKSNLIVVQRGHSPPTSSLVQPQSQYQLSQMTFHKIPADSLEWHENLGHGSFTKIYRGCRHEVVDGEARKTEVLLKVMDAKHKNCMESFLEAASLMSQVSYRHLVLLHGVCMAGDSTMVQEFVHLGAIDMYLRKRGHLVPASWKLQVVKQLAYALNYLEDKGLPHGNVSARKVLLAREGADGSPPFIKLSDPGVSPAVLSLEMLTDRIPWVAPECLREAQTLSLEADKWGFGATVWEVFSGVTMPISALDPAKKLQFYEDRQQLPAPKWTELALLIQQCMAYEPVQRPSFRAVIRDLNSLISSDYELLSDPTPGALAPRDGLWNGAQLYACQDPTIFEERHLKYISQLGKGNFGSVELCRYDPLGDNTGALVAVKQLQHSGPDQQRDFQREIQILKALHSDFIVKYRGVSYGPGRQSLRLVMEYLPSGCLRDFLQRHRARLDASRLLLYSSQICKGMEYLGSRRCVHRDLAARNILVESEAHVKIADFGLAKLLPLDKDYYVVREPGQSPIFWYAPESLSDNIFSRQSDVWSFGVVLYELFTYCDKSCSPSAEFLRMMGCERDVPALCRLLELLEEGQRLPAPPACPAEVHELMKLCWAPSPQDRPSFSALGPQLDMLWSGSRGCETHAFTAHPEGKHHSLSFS


Assays:
γc-JAK-3 interaction = target: T1, γc-JAK-3 interaction; assay: Assay for compounds that inhibit IL-2 receptor complex formation: γc-JAK-3 coprecipitation (Example 15); format: binding; settings: peptide 140 μM added to cell lysates, anti-γc immunoprecipitation, JAK-3 immunoblot
Experimental: The peptide to be tested as an inhibitor corresponded to the first 19 amino acids of the γc cytoplasmic tail (sequence […]) (SEQ ID NO:7). […] The negative control peptide had the sequence […] (SEQ ID NO:10), and was synthesized so that the Tyr residue at position 5 of the peptide was phosphotyrosine. The test peptide or the negative control peptide were separately added to the cell lysates to final concentrations of 140 μM. The positive control immunoprecipitation was carried out in the absence of added peptide. Lysates were immunoprecipitated for 16 hours at 4° C. using antibodies to γc and protein A sepharose and washed six times before electrophoresis on SDS gels. The gels were immunoblotted with antisera to JAK-3 using ECL as described previously.

JAK-3 [1] = assay: Cytokine-induced tyrosine phosphorylation of JAK-3 in YT cells (Example 10); format: cell-based, human; settings: 15 minutes stimulation, anti-JAK-3 IP, antiphosphotyrosine blot
Experimental: (§1) YT cells were serum-starved for 3 hours and acid washed twice before stimulation and immunoprecipitation. NK 3.3 cells were grown for 2 days in 10% lymphocult (Biotest) and 15% fetal bovine serum before being washed and incubated in 2% serum. Commercial polyclonal anti-JAK-1 and JAK-2 antisera were obtained from UBI and Tyk2 polyclonal antiserum from Santa Cruz Biotechnology.

JAK-1 = assay: Cytokine-induced phosphorylation and activation of JAK-1 in PHA-activated peripheral blood lymphocytes (Example 11); format: cell-based, human; settings: for tyrosine phosphorylation of JAK-1: PBL, 15 minutes, Western blotting; for activation of JAK-1: in vitro kinase assays
Experimental: (§2) The PBL were activated for 72 hours with PHA, then washed twice at pH 6.5, incubated for 3 hours in medium containing 0.5% human serum and resuspended in medium containing 10% fetal calf serum for one hour. Cells were then lysed and immunoprecipitated with polyclonal antibodies to JAK-1 (UBI) or JAK-3. The anti-JAK-3 antibody used in these procedures has been described by Johnston et al., in Nature 370:151 (1994). Phosphotyrosine-containing proteins were detected by immunoblotting with 4G10 (UBI). […] In one procedure, the lysate was precleared with polyclonal antibody to JAK-3.

JAK-3 [2] = assay: Cytokine-induced phosphorylation and activation of JAK-3 in PHA-activated peripheral blood lymphocytes (Example 11); format: cell-based, human; settings: for tyrosine phosphorylation of JAK-3: PBL, 15 minutes, Western blotting; for activation of JAK-3: in vitro kinase assays
Experimental: as §2

JAK-3 [3] = assay: Cytokine-induced tyrosine phosphorylation of JAK-3 in NK 3.3 cells (Example 10); format: cell-based, human; settings: 5 or 15 minutes stimulation
Experimental: as §1
Cellular lysates were immunoprecipitated with anti-JAK-3 and blotted with antiphosphotyrosine.

Molecule | inhibition of γc-JAK-3 coprecipitation (γc-JAK-3 interaction) | tyrosine phosphorylation of JAK-1 (JAK-1) | activation of JAK-1 (JAK-1) | tyrosine phosphorylation of JAK-3 (JAK-3 [2]) | activation of JAK-3 (JAK-3 [2]) | also measured
APPCYTLKPET (n-terminal fragment) [negative control peptide, reference compound] | failed to inhibit | – | – | – | – | –
ERTMPRIPTLKNLEDLVTE (n-terminal fragment) [competitor peptide] | partially inhibited | – | – | – | – | inhibition of γc-JAK-3 coprecipitation (γc-JAK-3 interaction; listed as 19 amino acid long peptide spanning Leu 271): only partially inhibited; inhibition of γc-JAK-3 coprecipitation (γc-JAK-3 interaction; listed as 19 amino acid polypeptide having the sequence of SEQ ID NO:6): inhibited
GM-CSF: granulocyte macrophage colony stimulating factor | – | – | – | – | – | JAK-3 tyrosine phosphorylation (JAK-3 [1]): not phosphorylated
IL-9: cytokine, known γc user | – | induced tyrosine phosphorylation | activated | induced tyrosine phosphorylation | activated | –
IL-7: cytokine, known γc user (protein, UniProt P13232 26-177, looked up) Interleukin-7: DCDIEGKDGKQYESVLMVSIDQLLDSMKEIGSNCLNNEFNFFKRHICDANKEGMFLFRAARKLRQFLKMNSTGDFDLHLLKVSEGTTILLNCTGQVKGRKPAALGEAQPTKSLEENKSLKEQKKLNDLCFLKRLLQEIKTCWNKILMGTKEH | – | induced tyrosine phosphorylation | activated | induced tyrosine phosphorylation | activated | –
IL-4: cytokine that utilizes the common γ chain of the IL-2 receptor (protein, UniProt P05112 25-153, looked up) Interleukin-4: HKCDITLQEIIKTLNSLTEQKTLCTELTVTDIFAASKNTTEKETFCRAATVLRQFYSHHEKDTRCLGATAQQFHRHKQLIRFLKRLDRNLWGLAGLNSCPVKEANQSTLENFLERLKTIMREKYSKCSS | – | induced tyrosine phosphorylation | activated | induced tyrosine phosphorylation | activated | JAK-3 tyrosine phosphorylation (JAK-3 [3]): tyrosine phosphorylated
